# Biological target: FLAG-ctxIII coexpressed in E. coli with His-ctxI or His-ctxII (Dictyostelium discoideum)
# Assay: AUC
# Sequence of His-ctxII (recombinant N-terminal His-tagged cortexillin II) (Q550R2 whole entry): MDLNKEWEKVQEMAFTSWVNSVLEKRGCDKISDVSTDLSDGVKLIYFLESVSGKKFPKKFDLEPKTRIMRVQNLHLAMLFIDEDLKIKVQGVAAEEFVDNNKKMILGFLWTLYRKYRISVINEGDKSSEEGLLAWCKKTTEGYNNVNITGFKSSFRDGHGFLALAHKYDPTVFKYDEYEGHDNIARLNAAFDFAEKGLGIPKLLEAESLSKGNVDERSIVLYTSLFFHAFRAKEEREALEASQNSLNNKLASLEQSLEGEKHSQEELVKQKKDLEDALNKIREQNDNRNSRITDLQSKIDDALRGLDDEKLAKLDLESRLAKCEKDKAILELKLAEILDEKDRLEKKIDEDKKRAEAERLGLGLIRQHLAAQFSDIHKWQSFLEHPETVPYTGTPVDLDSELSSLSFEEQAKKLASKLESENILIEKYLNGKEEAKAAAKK
# Sequence of His-ctxI (recombinant N-terminal His-tagged cortexillin I) (Q54HG2 whole entry): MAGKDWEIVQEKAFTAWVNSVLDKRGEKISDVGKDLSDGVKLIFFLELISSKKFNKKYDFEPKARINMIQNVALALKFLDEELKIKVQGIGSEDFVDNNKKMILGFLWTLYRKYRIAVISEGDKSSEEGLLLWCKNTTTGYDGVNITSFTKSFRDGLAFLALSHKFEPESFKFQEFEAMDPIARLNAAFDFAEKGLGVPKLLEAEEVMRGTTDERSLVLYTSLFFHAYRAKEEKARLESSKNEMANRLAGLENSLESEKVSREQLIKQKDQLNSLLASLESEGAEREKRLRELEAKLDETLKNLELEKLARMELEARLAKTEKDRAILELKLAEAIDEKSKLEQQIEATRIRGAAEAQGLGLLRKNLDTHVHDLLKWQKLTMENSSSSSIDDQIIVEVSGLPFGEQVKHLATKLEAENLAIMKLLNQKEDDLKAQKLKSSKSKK
substance,measurement,value
His-ctxI (recombinant N-terminal His-tagged cortexillin I) (from UniProt Q54HG2 1-444) (natural protein),"major peak (heterodimer), percent of total protein",60%
His-ctxII (recombinant N-terminal His-tagged cortexillin II) (from UniProt Q550R2 1-441) (natural protein),"major peak (heterodimer), percent of total protein",70%
